Legend:
[1] = molecular target: SIRPα protein (Acrobiosystems, Cat. No. SIA-H5225), V1 genotype (human) (UniProt P78324); assay: BLI (Octet Red96), SIRPα captured on H1S1K biosensor, antibody as analyte, 1:1 fit
[2] = molecular target: T1, biotin-labeled SIRPα (Acrobiosystems, Cat. No. CDA-H82F2), V1 genotype (human, UniProt P78324 31-370, biotin-labeled (site not stated)); assay: competition ELISA (FIG. 4B), blocking of biotin-labeled SIRPα (V1) binding to coated CD47-Fc
T1 construct: Bought protein; also called SIRPα (V1)

[3] = molecular target: T1, biotin-labeled SIRPα (Acrobiosystems, …); assay: competition ELISA, blocking of biotin-labeled SIRPα binding to coated CD47-Fc (competitor CD47-Fc)
Method: (§1) 96-well plates were coated with CD47-Fc (manufacturer: Acrobiosystems, Cat. No. CD7-H5256) at 4° C. overnight. Plates were washed and blocked with 1% BSA-PBST blocking solution. […] After a 1 h incubation at 37° C., plates were washed and HRP-labeled streptavidin (manufacturer: Abcam, Cat. No.: ab7403) was added. After a 0.5 h incubation at 37° C., plates were washed and TMB solution was added. After a 0.5 h incubation at room temperature in the dark, the reaction was terminated by adding 2 N H₂SO₄. Absorbance was read at 450 nm on a microplate reader. IgG (manufacturer: GenScript) was used as the control.

[4] = molecular target: T2, SIRPα protein (Acrobiosystems, Cat. No. SIA-H5225), V1 genotype (human, UniProt P78324 31-370); assay: ELISA, coated SIRPα (SIA-H5225)
T2 construct: Bought protein; also called recombinant SIRPα protein; antigen SIRPα
Method: The plates were then blocked with 1% BSA-PBS blocking solution for 1 h at 37° C. Plates were washed with PBST. The humanized antibodies were diluted to different concentrations (3-fold serially diluted from 66.7 nM, 11 concentration gradients in total) and added to the plates. After a 1 h incubation at 37° C., plates were washed and HRP-labeled goat anti-human IgG (manufacturer: Abcam, Cat. No. Ab98595, 1:10000 dilution) was added. After a 0.5 h incubation at 37° C., plates were washed and TMB solution was added. After a 5 min incubation at room temperature in the dark, the reaction was terminated by adding 2 N H₂SO₄. Absorbance was read at 450 nm on a microplate reader.

[5] = molecular target: biotin-labeled SIRPα (V2) (Acrobiosystems, Cat. No. SI2-H82W8) (human, UniProt P78324 31-370, biotin-labeled (site not stated)); assay: competition ELISA (FIG. 4C), blocking of biotin-labeled SIRPα (V2) binding to coated CD47-Fc
Method: as §1
(§2) The antibodies were 3-fold serially diluted from 200 nM and a total of nine concentration gradients were prepared.

[6] = molecular target: membrane SIRPα on THP-1 cells (human myeloid leukemia monocytes endogenously expressing SIRPα) (human) (UniProt P78324); assay: cell-based or functional assay
[7] = molecular target: biotin-labeled SIRPα (V8) (Acrobiosystems, Cat. No. SI8-H82W6) (human, UniProt P78324 31-370, biotin-labeled (site not stated)); assay: competition ELISA (FIG. 4D), blocking of biotin-labeled SIRPα (V8) binding to coated CD47-Fc
Method: as §1, §2

[8] = molecular target: T2, SIRPα protein (Acrobiosystems, Cat. No. …); assay: BLI (Octet Red96), SIRPα captured on H1S1K biosensor, antibody as analyte, 1:1 fit
[9] = molecular target: T1, biotin-labeled SIRPα (Acrobiosystems, …); assay: competition ELISA (FIG. 4A), blocking of biotin-labeled SIRPα (V1) binding to coated CD47-Fc; FIG. 4A, run beside KWAR23
Method: as §1
(§3) The antibodies were 2-fold serially diluted from 83.4 nM and a total of nine concentration gradients were prepared.

[10] = molecular target: T1, biotin-labeled SIRPα (Acrobiosystems, …); assay: competition ELISA (FIG. 4B), blocking of biotin-labeled SIRPα (V1) binding to coated CD47-Fc; FIG. 4B, run beside 18D5 and 1H9
Method: as §1, §3

Q: How did the Kd [1] turn out when KWAR23 (antibody) was run?
A: 0.0509 nM

B1: 1H9 (antibody, V domains shown)
VH: QVQLQQPGAERVKPGASVKMSCKASGYTFTSYWITWVKQRPGQGLEWIGDIYPGSGSTNHIEKFKSKATLTVDTSSNTAYMQLSRLTSEDSAVYYCATGYGSSYGYFDYWGQGTTLTVSS
VL: DIQMTQSPASLSASVGETVTITCRASENIYSYLAWYQQKQGKSPQLLVYTAKTLAEGVPSRFSGSGSGTQFSLKINSLQPEDFGNYYCQHQYGPPFTFGSGTRLVIK
Q: How did the IC50 [2] turn out when B1 was run?
A: 4.2 nM

B2: #13 antibody (humanized anti-SIRPα antibody) (antibody, V domains shown)
VH: QVQLVQSGSELKKPGASVKVSCKASGYTFTDYSIHWVRQAPGQGLEWMGWINTETGEPTYADDFKGRFVFSLDTSVSTAYLQICSLKAEDTAVYYCSRGPLYRYDGYGLEYWGQGTLVTVSS
VL: DIVMTQSPDSLAVSLGERATINCKASQSVSNDVAWYQQKPGQPPKLLIYYASNRCTGVPDRFSGSGSGTDFTLTISSLQAEDVAVYYCHQDYISPYTFGGGTKLEIK
notes: Full antibody as tested
Q: For B2, which IC50 [3] is on record?
A: 1.5 nM

Q: What about the EC50 [4] of the same molecule?
A: 0.952 nM

B3: 18D5 (antibody, V domains shown)
VH: QVQLQQPGAELVRPGSSVKLSCKASGYTFTSYWVHWVKQRPIQGLEWIGNIDPSDSDTHYNQKFKDKASLTVDKSSSTAYMQLSSLTFEDSAVYYCVRGGTGTMAWFAYWGQGTLVTVSA
VL: DVVMTQTPLSLPVSLGDQASISCRSSQSLVHSYGNTYLYWYLQKPGQSPKLLIYRVSNRFSGVPDRFSGSGSGTDFTLKISRVEAEDLGVYFCFQGTHVPYTFGSGTKLEIK
Q: How did the IC50 [2] turn out when B3 was run?
A: 4.1 nM

B4: #11 antibody (humanized anti-SIRPα antibody) (antibody, V domains shown)
VH: QVTLKESGPVLVKPTETLTLTCTVSGFSLSSHGVHWIRQPPGKALEWLAVIWSDGSTTYNSTLKSRLTISKDTSKSQVVLTMTNMDPVDTATYYCARHGNYHYNMDYWGQGTLVTVSS
VL: DIQLTQSPSFLSASVGDRVTITCRTSSRVNSGYLHWYQQKPGKAPKLLIYSTSTLASGVPSRFSGSGSGTEFTLTISSLQPEDFATYYCQQYSSYPWTFGGGTKLEIK
notes: Full antibody as tested
Q: With B4 as the molecule, how does the IC50 [3] read?
A: 0.209 nM

Q: What about the EC50 [4] of the same molecule?
A: 0.464 nM

B5: #4 antibody (humanized anti-SIRPα antibody) (antibody, V domains shown)
VH: EVQLVQSGAEVKKPGATVKISCRGSGFNIKDYYIQWVQQAPGKGLEWMGWIDPENGDTKYAPKFQGRVTITADTSTDTAYMELSSLRSEDTAVYYCYAKGPYWGQGTTLTVSS
VL: DIVMTQSPDSLAVSLGERATINCKSSQSLFYSSNQKNFLAWYQQKPGQPPKLLIYWASTRESGVPDRFTGSGSGTDFTLTISSVKAEDLAVYYCQQYYSYPPTFGGGTKLEIK
notes: Full antibody as tested
Q: B5 was tested. Which IC50 [3] did it give?
A: 6.03 nM

Q: And the EC50 [4]?
A: 1.83 nM

B6: KWAR23 (antibody, V domains shown)
VH: EVQLQQSGAELVKPGASVKLSCTASGFNIKDYYIHWVQQRTEQGLEWIGRIDPEDGETKYAPKFQDKATITADTSSNTAYLHLSSLTSEDTAVYYCARWGAYWGQGTLVTVSS
VL: QIVLTQSPAIMSASPGEKVTLTCSASSSVSSSYLYWYQQKPGSSPKLWIYSTSNLASGVPARFSGSGSGTSYSLTISSMEAEDAASYFCHQWSSYPRTFGAGTKLELK
Q: With B6 as the molecule, how does the IC50 [5] read?
A: 6.4 nM

Q: What about the Endocytosis rate (%) [6] of the same molecule?
A: 34.7%

Q: And the IC50 [7]?
A: 10.8 nM

B7: #14 antibody (humanized anti-SIRPα antibody) (antibody, human IgG1, kappa, N297A, V domains shown)
VH: QVQLQESGPGLVKPSQTLSLTCTVSGGSISSGYYWSWIRQHPGKGLEWIGYISYDGSRYNNPSLKNRVTISVDTSKNQFSLKLSSVTAADTAVYYCAREEYANYFAYWGQGTTVTVSS
VL: DIVMTQSPDSLAVSLGERATINCKSSQSLFYSSNQKNFLAWYQQKPGQPPKLLIYWASTRESGVPDRFTGSGSGTDFTLTISSVKAEDLAVYYCQQYYSYPPTFGQGTKLEIKR
Q: What does the source list for B7?
A: Kd [8]: 0.0217 nM; IC50 [9]: 3.4 nM; IC50 [5]: 7.8 nM; IC50 [10]: 4.4 nM; IC50 [3]: 0.132 nM; EC50 [4]: 0.683 nM; IC50 [7]: 11.5 nM

— patent US20240034804A1 (BIORAY PHARMACEUTICAL, published 2024)
